# Reference: PMC7703470 (Biosensors & Bioelectronics, 2020)
# B1: 12H1 scFv-Fc antibody (scFv, V domains shown)
# VH: AVTLDESGGGLQTPGGTLSLVCKASGFTFSDRGMHWVRQAPGKGLEWVAGIRGDGSYTDYAPAVKGRATISRDNGQSTVRLQLNNLRAEDTATYYCAKSSYKCSTWSCRGYESDSIDAWGHGTEVIVSS
# VL: LTQPSSVSANLGGTVKMTCSGGSSGYGWYQQKSPGSAPVTLIYYNDKRPSGIPSRFSGSKSDSTGTLTITGVQAEDEAVYYCGNTDSSYVGMFGAGTTLTVL
# B2: 12H8 scFv-Fc antibody (scFv, V domains shown)
# VH: AVTLDESGGGLQTPGGGLSLVCKASGFTFSNYGMDWVRQAPGKGLEWVAGIDNDGSGRGYGAAVKGRATISRDNGQSTVRLQLNNLRAEDTATYYCAKSTYGGRGCCDTTDAWGHGTEVIVSS
# VL: LTQPSSVSANPGETVKITCSGGGSWYGWFQQKSPGSAPVTVINANTNRPSDIPSRFSGSKSGSTGTLTITGVQADDEAVYFCGSYDSSTDSGIFGAGTTLTVL
# B3: 12B3 scFv-Fc antibody (scFv, V domains shown)
# VH: AVTLDESGGGLRTPRGALSLVCKASGFSFSDHGMAWVRQAPGKGLEWVAGISSGGSGTEYGAAVKGRATISRDNGQSTVRLQLNNLRAEDTGTYYCAKTTSPYCGWSGSLDYDCGAEDIDAWGHGTEVIVSS
# VL: LTQPSSVSANLGETVKITCSGDSNYYGWYQQKSPGSAPVTVIYDNAKRPSNIPSRFSGSKSGSTNTLTITGVQAEDEAVYFCGGWDSDTGTFGAGTTLTVL
# B4: 1G5 scFv-Fc antibody (scFv, V domains shown)
# VH: AVTLDESGGGLQTPGGALSLVCKASGFTFSSYGMFWVRQAPGKGLEFVASITNTGSYTTYGAAVEGRATISRDNGQSTVRLQLNNLRAEDTAIYYCAKTSCNNCGWSGPGYIDAWGHGTEVIVSS
# VL: LTQPSSVSANLGGTVKITCSGGGNDYGWYQQKAPGSAPVTVINTNDKRPSDIPSRFSGSKSGSTATLTITGVQAEDEAVYFCGAYDSSTSADIFGAGTTLTVL
# Biological target: SARS-CoV-2 nucleocapsid protein (NP) (Severe acute respiratory syndrome …, UniProt P0DTC9)
# Assay: BLI
row,Binder,Kd [nM]
1,B1,18.3
2,B2,1.31
3,B3,8.47
4,B4,2.86
